# Data: US20100260748A1
# T1: human FcRH5 (FcRH5c/IRTA2c, PRO52387), recombinant protein ('Hu antigen') (human) (UniProt Q96RD9)
# T1 sequence: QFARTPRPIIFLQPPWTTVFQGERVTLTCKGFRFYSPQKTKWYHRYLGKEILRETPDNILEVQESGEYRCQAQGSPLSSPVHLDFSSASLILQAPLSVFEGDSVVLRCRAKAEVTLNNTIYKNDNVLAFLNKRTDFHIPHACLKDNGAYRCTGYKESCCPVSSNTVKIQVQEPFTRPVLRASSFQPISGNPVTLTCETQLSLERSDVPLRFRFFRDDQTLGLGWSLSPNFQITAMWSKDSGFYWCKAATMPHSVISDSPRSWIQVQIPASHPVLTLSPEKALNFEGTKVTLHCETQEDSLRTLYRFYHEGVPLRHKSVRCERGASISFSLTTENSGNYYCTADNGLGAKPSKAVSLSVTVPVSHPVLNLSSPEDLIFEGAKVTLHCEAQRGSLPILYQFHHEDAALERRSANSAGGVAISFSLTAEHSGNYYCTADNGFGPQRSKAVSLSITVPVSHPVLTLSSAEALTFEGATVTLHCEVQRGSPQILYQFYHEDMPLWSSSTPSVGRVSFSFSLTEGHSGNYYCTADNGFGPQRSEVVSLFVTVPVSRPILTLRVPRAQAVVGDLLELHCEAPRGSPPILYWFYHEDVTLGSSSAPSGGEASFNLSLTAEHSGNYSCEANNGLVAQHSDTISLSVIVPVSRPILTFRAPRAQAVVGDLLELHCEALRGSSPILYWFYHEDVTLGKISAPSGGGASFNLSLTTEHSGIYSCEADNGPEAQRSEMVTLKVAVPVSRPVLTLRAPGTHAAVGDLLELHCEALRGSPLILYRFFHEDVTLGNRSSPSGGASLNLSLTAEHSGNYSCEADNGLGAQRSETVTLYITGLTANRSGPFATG
# B1: murine anti-FcRH5-13G9 monoclonal antibody (antibody, from another filing, V domains shown)
# VH: EVQLVQSGPELKKPGETVKISCKASGYTFTNYGMNWVKQAPGKGLKWMGWVNTYTGEPTYTDDFKGRFAFSVETSASTVFLQINNLKNEDTATYFCARRSIPYYYAMDYWGQGTSLT
# VL: DIVMTQSQKIMSTSVGDRVNVTCKASQNVGSNVAWYHQKPGQSPKALIYSASYRYSGVPDRFTGSGSGTDFTLTISNVQSEDLAEYFCQQYKTWTFGGGTKLEIKR
# Target: T1, human FcRH5 (FcRH5c/IRTA2c, PRO52387), recombinant protein ('Hu antigen') (human)
# Experiment: SPR (Biacore 2000), IgG captured on anti-murine IgG chip, serial dilutions of FcRH injected, 25 C, 1:1 Langmuir fit
binder,measurement,value
B1,Kd,19 nM
